One series concerns the target T1, GST-IPA1 fusion protein (rice (Oryza sativa), UniProt Q7EXZ2 1-417).
T1 construct: IPA1/OsSPL14 of rice, full-length CDS in pGEX-4T-1; source: E. coli BL21 (DE3), purified on glutathione beads
T1 sequence (looked up): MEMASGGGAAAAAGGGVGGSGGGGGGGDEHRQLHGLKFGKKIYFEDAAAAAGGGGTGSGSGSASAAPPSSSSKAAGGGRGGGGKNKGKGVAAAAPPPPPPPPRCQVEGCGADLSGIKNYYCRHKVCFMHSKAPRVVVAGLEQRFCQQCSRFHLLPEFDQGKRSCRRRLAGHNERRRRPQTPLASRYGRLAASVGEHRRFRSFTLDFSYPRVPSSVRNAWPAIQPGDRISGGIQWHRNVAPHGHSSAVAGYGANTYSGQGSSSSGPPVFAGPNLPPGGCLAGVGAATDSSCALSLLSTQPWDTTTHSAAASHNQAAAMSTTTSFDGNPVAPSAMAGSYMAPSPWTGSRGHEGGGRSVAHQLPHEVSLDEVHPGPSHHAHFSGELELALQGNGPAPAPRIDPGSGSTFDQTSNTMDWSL
The series is described as follows: pull-down; about 0.5 μg GST-IPA1 bound to GST beads at 4°C for 2 h, the same amount of His-GS2 incubated for 2 h; 150 mM KCl, 50 mM Tris-HCl pH 7.5, 0.01% NP-40; detected with His and GST antibodies. Conditions: both partners purified.

For a further series, the target named is T2, GS2 (OsGRF4) (Oryza sativa (rice), ZH11?, UniProt Q6ZIK5 1-394).
T2 sequence: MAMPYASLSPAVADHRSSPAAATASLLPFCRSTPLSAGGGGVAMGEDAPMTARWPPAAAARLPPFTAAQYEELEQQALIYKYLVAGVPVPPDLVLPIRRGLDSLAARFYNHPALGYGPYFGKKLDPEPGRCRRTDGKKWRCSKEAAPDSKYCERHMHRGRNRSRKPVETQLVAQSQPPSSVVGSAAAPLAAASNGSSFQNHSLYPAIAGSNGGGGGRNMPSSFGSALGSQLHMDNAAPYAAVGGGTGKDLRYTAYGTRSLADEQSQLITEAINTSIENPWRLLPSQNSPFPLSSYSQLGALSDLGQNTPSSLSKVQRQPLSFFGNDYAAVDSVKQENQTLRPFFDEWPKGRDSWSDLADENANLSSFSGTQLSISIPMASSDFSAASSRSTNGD
The series is described as follows: EMSA; EMSA: 20 min at 25 C, 4% acrylamide gel, biotin probes (Beyotime GS008/GS009); buffer, salt and pH not stated. To be noted: protein: recombinant; tags: GST; label: biotin; blunt. (In EMSA bound probe runs differently from free probe, usually more slowly.)

Series [1] has as its target T3, GS2TM (miR396 target-site mutant) (Oryza sativa (rice), GS2TM plants?, UniProt Q6ZIK5 1-394, S163K).
T3 sequence: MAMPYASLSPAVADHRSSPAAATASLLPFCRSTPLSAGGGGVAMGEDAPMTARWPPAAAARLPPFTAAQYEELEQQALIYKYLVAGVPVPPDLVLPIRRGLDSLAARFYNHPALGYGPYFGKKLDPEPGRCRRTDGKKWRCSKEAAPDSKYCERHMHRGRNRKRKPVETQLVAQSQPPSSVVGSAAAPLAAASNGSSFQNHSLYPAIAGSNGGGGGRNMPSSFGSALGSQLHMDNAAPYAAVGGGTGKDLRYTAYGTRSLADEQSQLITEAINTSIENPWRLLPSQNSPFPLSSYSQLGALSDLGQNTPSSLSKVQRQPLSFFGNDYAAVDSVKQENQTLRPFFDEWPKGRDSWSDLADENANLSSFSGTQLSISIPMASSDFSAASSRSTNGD
The description is as above. To be noted: protein: recombinant; tags: GST; label: biotin; blunt.

This is an account of results in paper PMC11840411, “GS2 cooperates with IPA1 to control panicle architecture” (The New Phytologist, 2025).

B1: His-GS2 fusion protein (natural protein, rice (Oryza sativa), UniProt Q6ZIK5 1-394, looked up)
chain: MAMPYASLSPAVADHRSSPAAATASLLPFCRSTPLSAGGGGVAMGEDAPMTARWPPAAAARLPPFTAAQYEELEQQALIYKYLVAGVPVPPDLVLPIRRGLDSLAARFYNHPALGYGPYFGKKLDPEPGRCRRTDGKKWRCSKEAAPDSKYCERHMHRGRNRSRKPVETQLVAQSQPPSSVVGSAAAPLAAASNGSSFQNHSLYPAIAGSNGGGGGRNMPSSFGSALGSQLHMDNAAPYAAVGGGTGKDLRYTAYGTRSLADEQSQLITEAINTSIENPWRLLPSQNSPFPLSSYSQLGALSDLGQNTPSSLSKVQRQPLSFFGNDYAAVDSVKQENQTLRPFFDEWPKGRDSWSDLADENANLSSFSGTQLSISIPMASSDFSAASSRSTNGD
notes: GS2/OsGRF4 of rice, full-length CDS in pET28a
For B1, the binding result with GST-IPA1 fusion protein is reported as “binds”.

B2: GCCA core motif probe (GS2-EMSA) (dsDNA)
DNA 1: CCTGTCAAAGCCGGCCATCGCTGCCGGCTG
DNA 2: CAGCCGGCAGCGATGGCCGGCTTTGACAGG
For B2, the binding result (in the series with GS2 (OsGRF4); in series [1]) was “binds” each time.
